The chains are these.
B1: Programmed cell death protein 6 (Mus musculus), P12815 (parent)
chain: MAAYSYRPGPGGGPGPAAGAALPDQSFLWNVFQRVDKDRSGVISDNELQQALSNGTWTPFNPVTVRSIISMFDRENKAGVNFSEFTGVWKYITDWQNVFRTYDRDNSGMIDKNELKQALSGFGYRLSDQFHDILIRKFDRQGRGQIAFDDFIQGCIVLQRLTDIFRRYDTDQDGWIQVSYEQYLSMVFSIV
partner: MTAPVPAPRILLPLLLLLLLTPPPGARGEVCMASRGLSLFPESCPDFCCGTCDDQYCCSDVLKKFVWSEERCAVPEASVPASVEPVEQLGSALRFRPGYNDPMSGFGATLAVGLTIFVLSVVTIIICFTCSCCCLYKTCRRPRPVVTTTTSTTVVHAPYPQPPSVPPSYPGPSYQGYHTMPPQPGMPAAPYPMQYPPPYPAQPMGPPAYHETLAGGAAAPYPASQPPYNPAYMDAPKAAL

The source of these data is IntAct's records for PubMed 17889823.

Variants of B1 are the subject of the test. The conditions noted are these: with shsa5_human SHISA5, Q8N114.
Turning to E47D;E114D, the “effect of a mutation on the interaction” value is “disrupting interaction strength”.
